Experimental data from article PMC11685497 (Nature Communications, 2024).

Experiments:
[1] = target: wild-type soluble CD73 (ecto-5'-nucleotidase), recombinant (human); test: cryo-EM structure
[2] = target: T1, wild-type soluble CD73 (ecto-5'-nucleotidase), recombinant (Homo sapiens); test: HDX-MS
T1 chain: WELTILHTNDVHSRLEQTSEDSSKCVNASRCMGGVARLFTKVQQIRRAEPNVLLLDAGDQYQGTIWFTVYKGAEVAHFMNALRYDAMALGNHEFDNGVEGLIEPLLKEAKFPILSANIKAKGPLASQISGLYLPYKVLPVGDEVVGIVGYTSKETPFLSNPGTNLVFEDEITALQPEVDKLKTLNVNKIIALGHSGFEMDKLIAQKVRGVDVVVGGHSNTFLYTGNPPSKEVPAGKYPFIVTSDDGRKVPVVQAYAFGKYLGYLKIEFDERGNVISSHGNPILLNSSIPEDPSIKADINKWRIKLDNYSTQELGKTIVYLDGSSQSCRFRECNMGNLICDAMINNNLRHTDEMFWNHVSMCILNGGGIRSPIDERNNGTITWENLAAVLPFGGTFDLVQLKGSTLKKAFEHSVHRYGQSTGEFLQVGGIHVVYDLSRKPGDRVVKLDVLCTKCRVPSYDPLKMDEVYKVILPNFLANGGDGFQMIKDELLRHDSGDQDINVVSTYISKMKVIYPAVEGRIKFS

[3] = target: human CD73, membrane-bound, on CHO-K1 cells (CHO-K1-huCD73-3F4) (Homo sapiens, UniProt P21589); test: flow cytometry on cells
[4] = target: T1, wild-type soluble CD73 …; test: negative-stain EM

“wild-type soluble CD73 (ecto-5'-nucleotidase), recombinant (enzyme)” was tested, and the stoichiometry N [1] was 2.

B1: HB0038 (humanized anti-human CD73 monoclonal IgG1, L234A/L235A) (antibody, V domains shown)
VH: QVQLVESGGGLVKPGGSLRLSCAASGFTFSKYAMSWIRQAPGKGLEWVAEISSGGGYINYADSVKGRFTISRDNAKNSLYLQMNSLRAEDTAVYYCARAIYYYGSSYNYYAMDYWGQGTTVTVS
VL: DIQMTQSPSSLSASVGDRVTITCRASQDVGTAEAWYQQKPGKAPKLLIYWASTRHTGVPSRFSGSGSGTDFTLTISSLQPEDFATYYCQQYSSYPLTFGQGTKL
With B1 the binding result [2] was “binds” and the EC50 [3] was 11.8 nM.

B2: HB0039 Fab (Fab, V domains shown)
VH: QVQLVQSGAEVKKPGASVKLSCKASGYTFTSYWIHWVRQAPGQGLEWIGMIHPNSGSTYYNEKFKGRATLTVDKSTSTAYMELSSLRSEDTAVYYCARYYGSDYEWYFDVWGQGTTV
VL: IQMTQSPSSMSASVGDRVTITCKASQNVRTAVVWYQQKPGKAPKALIYLASNRHTGVPDRFSGSGSGTDFTLTISSLQPEDFATYFCLQHWNYPYTFGQGTKL
B2: binds [2].

B3: HB0039 (humanized anti-human CD73 monoclonal IgG1, L234A/L235A) (antibody, V domains shown)
VH: QVQLVQSGAEVKKPGASVKLSCKASGYTFTSYWIHWVRQAPGQGLEWIGMIHPNSGSTYYNEKFKGRATLTVDKSTSTAYMELSSLRSEDTAVYYCARYYGSDYEWYFDVWGQGTTV
VL: IQMTQSPSSMSASVGDRVTITCKASQNVRTAVVWYQQKPGKAPKALIYLASNRHTGVPDRFSGSGSGTDFTLTISSLQPEDFATYFCLQHWNYPYTFGQGTKL
In the case of B3, the EC50 [3] is reported as 0.24 nM and the binding result [4] is reported as “binds”.

B4: HB0038 Fab (Fab, V domains shown)
VH: QVQLVESGGGLVKPGGSLRLSCAASGFTFSKYAMSWIRQAPGKGLEWVAEISSGGGYINYADSVKGRFTISRDNAKNSLYLQMNSLRAEDTAVYYCARAIYYYGSSYNYYAMDYWGQGTTVTVS
VL: DIQMTQSPSSLSASVGDRVTITCRASQDVGTAEAWYQQKPGKAPKLLIYWASTRHTGVPSRFSGSGSGTDFTLTISSLQPEDFATYYCQQYSSYPLTFGQGTKL
B4: binds [4].
